In US8530213B2, “Compositions and methods for using NADH oxidases” (Georgia Tech Research Corporation, priority 2009, dated 2013):

Assays:
NOX5 = NOX5 (Lactiplantibacillus plantarum, UniProt F9UUC2); conditions: H2O2 up to 200 μM, 30 minutes incubation
Procedure: Inhibition effects of NAD^+ and H2O2 were measured by incubating the enzyme with possible inhibitors for 30 minutes before the assay. For NAD^+, 0.2, 0.3, 0.4 and 0.6 mM were chosen and for H2O2, 25, 50, 100 and 200 μM were investigated.
The effect of H2O2 was studied with a concentration range up to 200 μM, which would be the total amount produced from a standard assay if the enzyme was a hydrogen peroxide producing NADPH oxidase.

[1] = Total turnover number (TTN), NADPH; assay type: biochemical
Procedure: (§1) Standard kinetic assays were performed with small amounts of enzyme. Assays were carried out for two to three hours until there was no more enzymatic conversion of the substrate.
Total turnover number (TTN) is a measurement of catalyst productivity. For biocatalysts, TTN is defined as the total amount of product produced over the lifetime of an enzyme. Calculations of TTN were performed by dividing the change of NADPH concentration by the amount of enzyme that was used for each assay. […] (data not shown).
(§2) This experiment was repeated to see if the presence of reducing agents had any effect on the total turnover number. The stock solution of enzyme was dialyzed against 250 mL of 10 mM Tris-HCl (pH 7.5) for two hours. The solution was then exchanged and dialyzed for an additional 2 hours. The TTN was then measured with the dialyzed enzyme with and without reducing agents. DTT and β-mercaptoethanol (β-ME) were used at a concentration of 5 mM. The TTN for the sample with no reducing agents, DTT and β-ME were 128,000, 168,000 and 107,000, respectively.

[2] = NOX5 mutants assayed at the cell lysate level, NADH activity; assay type: biochemical
Procedure: (§3) Standard assays were performed at 25° C. in 100 mM TEA buffer (pH 7.5) with 5 mM DTT in cuvettes with either a 1 cm or 1 mm path length, depending on the concentration of substrate. Initial activity was measured by following the absorbance change using a Beckman Coulter DU 800 UV/Vis spectrophotometer at 340 nm. Activity of the enzyme was calculated using an extinction coefficient of NAD(P)H, ε, as 6.22 mM^−1 cm^−1. Unless otherwise noted, a substrate concentration of 0.2 mM NADPH was used for assays. 1 unit (U) of activity is defined as […].
(§4) Single mutations were done on residues G178 and L179 into K, R and K, R, H respectively, and double mutations were also investigated with different combinations of the single mutations. The mutation of G178H was excluded due to the fact that the enzyme would then have two histidines next to each other, creating steric hindrance in the binding pocket. The resulting mutants were expressed on small scale and assayed at the cell lysate level.

[3] = Kinetic parameters of purified NADH oxidases, substrate NADH; assay type: biochemical; conditions: purified enzyme, excess of oxygen
Procedure: as §3
[…] This was conducted with an excess of oxygen present in the system. The reaction was initiated by mixing two separate 2× solutions of each the substrate and enzyme. The specific activity was measured, and the kinetic parameters were calculated from that data.
The data was fitted with four different models: non-linear Michaelis-Menten, Lineweaver-Burk, Eadie-Hofstee and Hanes. Through non-linear fitting, kcat and KM of the wild type were measured to be 211.6 s^−1 and 50.2 μM, respectively with an R^2 of 0.998. (FIG. 5).

[4] = Kinetic parameters of purified NADH oxidases, substrate NADPH; assay type: biochemical; conditions: purified enzyme, excess of oxygen
Procedure: as §3
Depending on the enzyme, a substrate concentration range from 1.5 μM up to 984 μM was investigated to determine the kcat and KM of NADPH. This was conducted with an excess of oxygen present in the system. The reaction was initiated by mixing two separate 2× solutions of each the substrate and enzyme. The specific activity was measured, and the kinetic parameters were calculated from that data.

[5] = Total turnover number (TTN), NADH; assay type: biochemical; set-up: key: TTN = change in NAD(P)H concentration / amount of enzyme
Procedure: as §1
Total turnover number (TTN) is a measurement of catalyst productivity. For biocatalysts, TTN is defined as the total amount of product produced over the lifetime of an enzyme. […] […] (data not shown).
as §2

[6] = NOX5 mutants assayed at the cell lysate level, NADPH activity; assay type: biochemical
Procedure: as §3, §4

NOX5, sequence (F9UUC2 entry or part of it): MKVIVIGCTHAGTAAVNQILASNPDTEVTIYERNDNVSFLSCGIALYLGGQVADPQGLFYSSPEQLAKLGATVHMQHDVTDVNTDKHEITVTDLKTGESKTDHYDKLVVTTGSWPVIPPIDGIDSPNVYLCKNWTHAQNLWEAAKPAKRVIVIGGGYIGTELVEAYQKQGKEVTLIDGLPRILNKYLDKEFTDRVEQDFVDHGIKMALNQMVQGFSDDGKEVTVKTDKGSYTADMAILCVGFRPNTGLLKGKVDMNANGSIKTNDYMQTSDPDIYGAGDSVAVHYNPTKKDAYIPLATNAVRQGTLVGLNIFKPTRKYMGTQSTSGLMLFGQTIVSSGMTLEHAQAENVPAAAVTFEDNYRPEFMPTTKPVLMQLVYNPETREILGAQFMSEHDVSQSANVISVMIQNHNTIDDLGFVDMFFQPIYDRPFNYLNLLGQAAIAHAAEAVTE

Row | Molecule | change in the initial specific activity of the enzyme (NOX5) | TTN, NADPH ([1]; no reducing agents) | TTN with DTT, NADPH ([1]; with DTT) | NADH activity [2] [U/mg] | kcat, NADH [3] [s⁻¹] | Km [4] [µM] | kcat, NADPH [4] [s⁻¹] | TTN with DTT, NADH ([5]; 5 mM DTT, 25° C.) | TTN, NADH ([5]; no reducing agents) | NADPH activity [6] [U/mg]
1 | OO [H2O2, hydrogen peroxide] | no change |  |  |  |  |  |  |  |  | 
2 | G178R/L179R: NADH oxidase derived from Lactobacillus plantarum, G178R/L179R mutant (protein, listed as Lactobacillus plantarum) MKVIVIGCTHAGTAAVNQILASNPDTEVTIYERNDNVSFLSCGIALYLGGQVADPQGLFYSSPEQLAKLGATVHMQHDVTDVNTDKHEITVTDLKTGESKTDHYDKLVVTTGSWPVIPPIDGIDSPNVYLCKNWTHAQNLWEAAKPAKRVIVIGGGYIGTELVEAYQKQGKEVTLIDRRPRILNKYLDKEFTDRVEQDFVDHGIKMALNQMVQGFSDDGKEVTVKTDKGSYTADMAILCVGFRPNTGLLKGKVDMNANGSIKTNDYMQTSDPDIYGAGDSVAVHYNPTKKDAYIPLATNAVRQGTLVGLNIFKPTRKYMGTQSTSGLMLFGQTIVSSGMTLEHAQAENVPAAAVTFEDNYRPEFMPTTKPVLMQLVYNPETREILGAQFMSEHDVSQSANVISVMIQNHNTIDDLGFVDMFFQPIYDRPFNYLNLLGQAAIAHAAEAVTE |  | 105,000 | 118,000 | 2.64 | 34.0 | 9.76 | 114.1 | 128,000 | 108,000 | 6.00
